From the supplement of paper PMC10065799, “High-throughput profiling of sequence recognition by tyrosine kinases and SH2 domains using bacterial peptide display” (eLife, 2023)

How the values were obtained:
SHP2-C SH2 = test: SH2 binding enrichment of the phosphorylated peptide, bacterial display (enrichment ratio); higher = better substrate or ligand; peptides without Tyr show the background
c-Src SH2 = test: as above
Grb2 SH2 = Grb2 SH2 (UniProt P62993); test: as above
Jak2 = Jak2 (UniProt O60674); test: phosphorylation enrichment, bacterial display (enrichment ratio); higher = better substrate or ligand; peptides without Tyr show the background
Hck = Hck (UniProt P08631); test: as above
MERTK = MERTK (UniProt Q12866); test: as above
FGFR3 = FGFR3 (UniProt P22607); test: as above
AncSZ = test: as above
Fes = Fes (UniProt P07332); test: as above
FGFR1 = FGFR1 (UniProt P11362); test: as above
Fyn = Fyn (UniProt P06241); test: as above
Fer (mouse) = test: as above
EPHB2 = EPHB2 (UniProt P29323); test: as above
EPHB1 = EPHB1 (UniProt P54762); test: as above
c-Src = test: as above
c-Abl (mouse) = test: as above
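Wherever SH2 binding enrichment of the phosphorylated peptide, bacterial display is given: peptide library displayed on the E. coli surface as eCPX fusions, selected cells deep-sequenced, score is each peptide's frequency after selection divided by its frequency in the input.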
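Wherever phosphorylation enrichment, bacterial display is given: 11-residue human phosphosite peptides and single-mutation variants displayed on the E. coli surface, counted by deep sequencing, each peptide's frequency after selection divided by its frequency in the unselected input library; frequency after pTyr selection over input frequency; kinase dosed for 20-30% of maximal phosphorylation in three min.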

FGFR1, sequence (P11362 whole entry, looked up): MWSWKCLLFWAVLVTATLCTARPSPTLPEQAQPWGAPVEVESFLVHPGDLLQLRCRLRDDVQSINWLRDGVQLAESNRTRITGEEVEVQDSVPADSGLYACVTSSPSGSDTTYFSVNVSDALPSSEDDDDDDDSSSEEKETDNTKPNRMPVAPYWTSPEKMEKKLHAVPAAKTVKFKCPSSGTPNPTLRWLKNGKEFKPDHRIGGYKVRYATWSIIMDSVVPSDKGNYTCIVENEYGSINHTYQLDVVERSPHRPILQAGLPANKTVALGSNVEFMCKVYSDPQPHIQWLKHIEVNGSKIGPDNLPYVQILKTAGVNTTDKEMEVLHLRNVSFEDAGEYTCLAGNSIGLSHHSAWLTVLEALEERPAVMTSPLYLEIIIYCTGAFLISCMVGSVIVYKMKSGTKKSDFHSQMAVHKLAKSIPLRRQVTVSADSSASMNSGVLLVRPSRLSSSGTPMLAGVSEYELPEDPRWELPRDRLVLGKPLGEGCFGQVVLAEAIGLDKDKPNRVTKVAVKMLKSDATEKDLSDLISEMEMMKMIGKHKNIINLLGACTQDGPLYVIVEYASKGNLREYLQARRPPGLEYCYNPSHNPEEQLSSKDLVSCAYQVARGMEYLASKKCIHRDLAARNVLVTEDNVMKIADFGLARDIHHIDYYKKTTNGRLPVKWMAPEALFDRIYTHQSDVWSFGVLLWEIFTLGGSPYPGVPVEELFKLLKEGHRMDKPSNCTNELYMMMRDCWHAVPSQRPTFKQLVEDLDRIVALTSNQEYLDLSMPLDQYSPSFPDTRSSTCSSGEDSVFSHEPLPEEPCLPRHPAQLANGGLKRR
MERTK, sequence (Q12866 whole entry, looked up): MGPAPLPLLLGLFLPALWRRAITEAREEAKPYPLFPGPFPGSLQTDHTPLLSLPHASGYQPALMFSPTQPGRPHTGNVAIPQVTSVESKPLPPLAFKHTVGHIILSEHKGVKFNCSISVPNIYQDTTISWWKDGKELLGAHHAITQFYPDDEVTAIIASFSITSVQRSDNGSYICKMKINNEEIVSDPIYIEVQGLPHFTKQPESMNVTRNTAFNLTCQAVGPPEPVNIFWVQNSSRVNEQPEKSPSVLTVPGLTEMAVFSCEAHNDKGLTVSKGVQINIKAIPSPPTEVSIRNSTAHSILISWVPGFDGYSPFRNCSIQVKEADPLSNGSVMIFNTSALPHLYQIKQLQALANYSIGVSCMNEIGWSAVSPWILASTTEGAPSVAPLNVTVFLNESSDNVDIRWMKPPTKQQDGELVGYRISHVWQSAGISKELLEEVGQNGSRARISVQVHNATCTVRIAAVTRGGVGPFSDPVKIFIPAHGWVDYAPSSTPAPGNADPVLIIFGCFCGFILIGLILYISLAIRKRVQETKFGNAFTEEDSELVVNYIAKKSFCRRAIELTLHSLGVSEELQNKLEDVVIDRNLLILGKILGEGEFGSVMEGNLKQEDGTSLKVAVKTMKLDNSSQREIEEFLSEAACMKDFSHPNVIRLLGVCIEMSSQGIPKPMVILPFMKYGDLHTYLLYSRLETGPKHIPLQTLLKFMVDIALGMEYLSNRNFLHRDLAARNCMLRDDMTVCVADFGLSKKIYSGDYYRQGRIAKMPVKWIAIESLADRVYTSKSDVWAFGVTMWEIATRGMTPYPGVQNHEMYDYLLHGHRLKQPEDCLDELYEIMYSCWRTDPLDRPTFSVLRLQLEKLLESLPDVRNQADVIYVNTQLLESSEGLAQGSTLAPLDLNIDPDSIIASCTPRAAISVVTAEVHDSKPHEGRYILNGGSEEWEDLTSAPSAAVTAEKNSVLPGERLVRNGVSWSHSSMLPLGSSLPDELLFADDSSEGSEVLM
FGFR3, sequence (P22607 whole entry, looked up): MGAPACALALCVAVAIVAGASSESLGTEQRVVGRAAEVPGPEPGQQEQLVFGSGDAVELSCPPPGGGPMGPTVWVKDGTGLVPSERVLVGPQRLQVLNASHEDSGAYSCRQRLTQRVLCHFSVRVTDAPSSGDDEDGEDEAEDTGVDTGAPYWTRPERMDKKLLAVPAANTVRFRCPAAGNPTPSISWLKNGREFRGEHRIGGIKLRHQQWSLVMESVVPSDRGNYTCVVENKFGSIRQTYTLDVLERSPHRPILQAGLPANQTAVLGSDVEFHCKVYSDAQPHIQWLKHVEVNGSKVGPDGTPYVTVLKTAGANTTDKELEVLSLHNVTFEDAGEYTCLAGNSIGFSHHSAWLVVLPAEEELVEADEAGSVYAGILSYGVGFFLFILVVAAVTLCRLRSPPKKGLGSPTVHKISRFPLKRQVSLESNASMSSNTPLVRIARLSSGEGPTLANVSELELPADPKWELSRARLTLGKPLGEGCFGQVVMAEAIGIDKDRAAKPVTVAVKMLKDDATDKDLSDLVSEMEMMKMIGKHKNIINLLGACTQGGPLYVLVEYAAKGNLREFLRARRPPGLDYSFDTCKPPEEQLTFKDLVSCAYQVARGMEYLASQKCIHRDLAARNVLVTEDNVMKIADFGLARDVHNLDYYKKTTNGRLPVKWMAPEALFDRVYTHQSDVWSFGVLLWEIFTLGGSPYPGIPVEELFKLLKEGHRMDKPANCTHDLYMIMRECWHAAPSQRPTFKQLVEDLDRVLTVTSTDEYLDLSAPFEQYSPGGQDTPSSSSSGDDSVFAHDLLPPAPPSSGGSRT
EPHB2, sequence (P29323 whole entry, looked up): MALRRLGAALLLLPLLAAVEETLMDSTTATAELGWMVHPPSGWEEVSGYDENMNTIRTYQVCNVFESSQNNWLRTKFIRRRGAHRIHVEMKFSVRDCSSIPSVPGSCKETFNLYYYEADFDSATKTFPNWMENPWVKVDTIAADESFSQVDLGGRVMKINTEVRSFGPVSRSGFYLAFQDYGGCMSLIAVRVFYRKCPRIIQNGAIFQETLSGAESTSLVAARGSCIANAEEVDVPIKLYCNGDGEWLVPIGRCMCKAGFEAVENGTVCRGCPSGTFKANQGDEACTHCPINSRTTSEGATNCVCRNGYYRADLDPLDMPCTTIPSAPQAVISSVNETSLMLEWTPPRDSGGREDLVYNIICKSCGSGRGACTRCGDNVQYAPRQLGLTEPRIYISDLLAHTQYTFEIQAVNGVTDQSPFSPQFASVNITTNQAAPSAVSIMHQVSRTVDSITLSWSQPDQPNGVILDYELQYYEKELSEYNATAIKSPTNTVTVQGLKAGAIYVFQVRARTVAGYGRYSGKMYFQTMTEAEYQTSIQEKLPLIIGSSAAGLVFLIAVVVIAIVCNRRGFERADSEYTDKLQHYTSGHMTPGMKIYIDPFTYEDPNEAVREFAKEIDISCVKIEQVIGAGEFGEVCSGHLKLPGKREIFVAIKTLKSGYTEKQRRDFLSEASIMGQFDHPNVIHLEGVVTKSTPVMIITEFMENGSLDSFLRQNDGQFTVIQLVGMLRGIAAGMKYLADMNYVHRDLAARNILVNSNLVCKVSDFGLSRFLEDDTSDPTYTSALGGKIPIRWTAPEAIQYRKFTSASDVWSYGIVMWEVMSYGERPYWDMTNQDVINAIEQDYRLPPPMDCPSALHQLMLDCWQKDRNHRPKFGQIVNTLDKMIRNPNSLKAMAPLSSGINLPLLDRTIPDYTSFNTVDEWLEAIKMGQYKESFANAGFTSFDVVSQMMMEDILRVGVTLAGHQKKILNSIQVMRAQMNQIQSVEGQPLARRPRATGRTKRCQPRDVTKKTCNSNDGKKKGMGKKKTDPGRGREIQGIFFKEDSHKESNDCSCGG
Fes, sequence (P07332 whole entry, looked up): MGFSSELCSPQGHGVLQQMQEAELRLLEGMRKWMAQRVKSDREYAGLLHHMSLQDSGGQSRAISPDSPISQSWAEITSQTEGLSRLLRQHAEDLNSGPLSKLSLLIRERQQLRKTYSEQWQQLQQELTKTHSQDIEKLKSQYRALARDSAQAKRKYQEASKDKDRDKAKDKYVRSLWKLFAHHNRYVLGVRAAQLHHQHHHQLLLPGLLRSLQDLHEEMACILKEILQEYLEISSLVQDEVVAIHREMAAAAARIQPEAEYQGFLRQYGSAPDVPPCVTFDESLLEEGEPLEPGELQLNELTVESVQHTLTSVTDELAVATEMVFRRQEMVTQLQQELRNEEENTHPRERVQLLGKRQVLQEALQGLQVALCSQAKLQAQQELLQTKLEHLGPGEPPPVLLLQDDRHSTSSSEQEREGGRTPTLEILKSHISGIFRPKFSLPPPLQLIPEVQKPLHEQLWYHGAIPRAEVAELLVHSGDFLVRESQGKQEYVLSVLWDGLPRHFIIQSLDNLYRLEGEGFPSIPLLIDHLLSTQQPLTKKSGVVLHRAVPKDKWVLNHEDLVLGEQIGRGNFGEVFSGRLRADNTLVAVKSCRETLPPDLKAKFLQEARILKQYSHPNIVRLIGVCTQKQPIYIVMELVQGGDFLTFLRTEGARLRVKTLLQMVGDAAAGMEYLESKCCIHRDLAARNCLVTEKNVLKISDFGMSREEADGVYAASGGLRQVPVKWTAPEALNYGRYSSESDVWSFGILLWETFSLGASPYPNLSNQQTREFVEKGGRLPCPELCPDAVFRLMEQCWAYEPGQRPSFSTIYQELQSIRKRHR
Fyn, sequence (P06241 whole entry, looked up): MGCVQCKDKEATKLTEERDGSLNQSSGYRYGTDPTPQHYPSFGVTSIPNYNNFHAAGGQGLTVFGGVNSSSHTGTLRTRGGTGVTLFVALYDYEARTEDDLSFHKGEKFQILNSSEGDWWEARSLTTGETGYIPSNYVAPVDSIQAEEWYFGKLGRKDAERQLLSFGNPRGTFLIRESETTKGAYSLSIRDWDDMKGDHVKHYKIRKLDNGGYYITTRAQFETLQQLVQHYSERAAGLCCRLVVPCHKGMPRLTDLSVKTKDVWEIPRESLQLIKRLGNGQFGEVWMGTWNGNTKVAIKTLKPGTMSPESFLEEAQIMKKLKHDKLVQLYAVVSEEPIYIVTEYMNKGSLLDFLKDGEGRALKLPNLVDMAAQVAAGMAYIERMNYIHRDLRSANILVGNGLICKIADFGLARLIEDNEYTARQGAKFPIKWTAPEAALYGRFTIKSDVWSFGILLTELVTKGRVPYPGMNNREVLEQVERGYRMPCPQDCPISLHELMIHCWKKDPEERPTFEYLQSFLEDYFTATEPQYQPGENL

Sequence | SH2 binding enrichment (SHP2-C SH2) | SH2 binding enrichment (c-Src SH2) | SH2 binding enrichment (Grb2 SH2) | phosphorylation enrichment (Jak2) | phosphorylation enrichment (Hck) | phosphorylation enrichment (MERTK) | phosphorylation enrichment (FGFR3) | phosphorylation enrichment (AncSZ) | phosphorylation enrichment (Fes) | phosphorylation enrichment (FGFR1) | phosphorylation enrichment (Fyn) | phosphorylation enrichment (Fer (mouse)) | phosphorylation enrichment (EPHB2) | phosphorylation enrichment (EPHB1) | phosphorylation enrichment (c-Src) | phosphorylation enrichment (c-Abl (mouse))
CTSIHYNYMCN [TP53_Y234_T231S] | 2.73 | 6.03 | 1.2 | 0.733 | 0.514 | 0.448 | 0.591 | 0.842 | 0.805 | 0.67 | 0.42 | 0.676 | 0.63 | 0.99 | 0.5 | 0.535
SVVMPYEPPEV [TP53_Y220_V218M] | 0.738 | 1.06 | 0.877 | 0.897 | 0.481 | 0.492 | 0.674 | 1.27 | 1.12 | 0.559 | 0.56 | 0.549 | 0.595 | 0.559 | 0.482 | 0.66
LTRDIYKNDYY [ROS1_Y2110_A2106T] | 0.906 | 1.53 | 1.35 | 2.28 | 1.48 | 0.839 | 3.61 | 2.28 | 1.88 | 5.83 | 1.82 | 1 | 2.79 | 2.15 | 2.86 | 1.21
RGGWVYVLHPT [TRMT61A_Y67] | 0.787 | 0.573 | 0.99 | 1.2 | 0.909 | 0.493 | 1.03 | 1.8 | 1.66 | 0.853 | 1.25 | 0.766 | 0.856 | 1.07 | 0.895 | 0.702
QRPFVYFFSFL [PTEN_Y176_R173P_YF] | 1.13 | 0.783 | 1.29 | 1.33 | 0.426 | 0.664 | 1.39 | 1.23 | 1.54 | 0.789 | 0.721 | 0.707 | 0.703 | 0.783 | 0.748 | 0.967
CLSHCYFSQIR [MCM3AP_Y873_L870S] | 1.15 | 1.23 | 1.22 | 0.623 | 0.363 | 0.485 | 0.607 | 0.727 | 0.758 | 0.573 | 0.354 | 0.388 | 0.497 | 0.41 | 0.432 | 0.484
RDLRTYIMPAH [PNMT_Y256] | 0.734 | 0.777 | 0.965 | 0.893 | 0.682 | 0.572 | 0.518 | 0.921 | 0.866 | 0.694 | 0.577 | 0.419 | 0.815 | 5.27 | 0.623 | 0.772
FRQLQYCPSVE [CTNND2_Y508_YF] | 0.658 | 0.489 | 0.876 | 0.901 | 0.499 | 0.478 | 0.861 | 0.949 | 1.15 | 0.525 | 0.501 | 0.514 | 0.605 | 0.669 | 0.456 | 0.808

Continued, in another order:

SH2 binding enrichment (SHP2-C SH2) | SH2 binding enrichment (c-Src SH2) | SH2 binding enrichment (Grb2 SH2) | Sequence | phosphorylation enrichment (Jak2) | phosphorylation enrichment (Hck) | phosphorylation enrichment (MERTK) | phosphorylation enrichment (FGFR3) | phosphorylation enrichment (AncSZ) | phosphorylation enrichment (Fes) | phosphorylation enrichment (FGFR1) | phosphorylation enrichment (Fyn) | phosphorylation enrichment (Fer (mouse)) | phosphorylation enrichment (EPHB2) | phosphorylation enrichment (EPHB1) | phosphorylation enrichment (c-Src) | phosphorylation enrichment (c-Abl (mouse))
1.79 | 1.22 | 2 | IKKLIYVFLVI [JAGN1_Y42_H44Y_YF] | 0.736 | 0.393 | 0.547 | 0.797 | 0.884 | 1.1 | 0.716 | 0.462 | 0.454 | 0.547 | 0.556 | 0.424 | 0.701
12.3 | 3.35 | 0.667 | SSSNPYSTVTV [ACTN2_Y599_M604V] | 0.383 | 0.82 | 0.464 | 0.483 | 0.432 | 0.597 | 0.745 | 0.733 | 9.71 | 0.359 | 0.342 | 1.29 | 0.567
4.29 | 0.597 | 0.92 | SNKLTYGTVVF [ACOX1_Y275_M278V] | 0.685 | 3.09 | 0.416 | 0.617 | 0.777 | 0.845 | 0.466 | 8 | 1.01 | 0.725 | 0.524 | 5.78 | 0.613
0.92 | 0.555 | 1.23 | EWQQIYTFDSG [JUP_Y20_T19I_YF] | 1.21 | 7.35 | 9.37 | 5.97 | 1.78 | 1.58 | 7.82 | 11.9 | 4.03 | 0.906 | 1.21 | 9.4 | 1.06
0.834 | 0.443 | 0.645 | GFWPRYVKVGS [NOG_Y172_R167G] | 0.695 | 0.532 | 0.447 | 0.653 | 0.746 | 0.97 | 0.554 | 0.493 | 0.388 | 0.532 | 0.594 | 0.402 | 0.568
0.562 | 0.478 | 0.809 | LVRPPYSFSAL [FOXI1_Y126_YF] | 0.553 | 0.423 | 0.363 | 0.434 | 0.602 | 0.618 | 0.395 | 0.419 | 0.479 | 0.46 | 0.385 | 0.409 | 0.465
0.456 | 0.499 | 0.914 | AFGEVYEGQVS [ALK_Y1131] | 0.846 | 0.937 | 0.442 | 0.667 | 0.974 | 1.11 | 0.695 | 0.772 | 0.459 | 0.64 | 0.539 | 1.54 | 0.764
5.17 | 1.43 | 1.07 | GVRYTYTIDGS [DCX_Y105_I104T] | 0.981 | 0.483 | 0.447 | 0.758 | 0.986 | 1.08 | 0.521 | 0.543 | 0.429 | 0.623 | 0.562 | 0.56 | 0.634
